From the DeepSol protein solubility set

Test: soluble on expression in E. coli; label from the status in PepcDB or PDB records

Sequence	soluble on expression in E. coli
MGSDKIHHHHHHMQVPKVTLNNGVEMPILGYGVFQIPPEKTEECVYEAIKVGYRLIDTAASYMNEEGVGRAIKRAIDEGIVRREELFVTTKLWVSDVGYESTKKAFEKSLKKLQLEYIDLYLIHQPFGDVHCAWKAMEEMYKDGLVRAIGVSNFYPDRLMDLMVHHEIVPAVNQIEIHPFYQRQEEIEFMRNYNIQPEAWGPFAEGRKNIFQNGVLRSIAEKYGKTVAQVILRWLTQKGIVAIPKTVRRERMKENISIFDFELTQEDMEKIATLDEGQSAFFSHRDPEVVKWICSLKR	soluble
MGSDKIHHHHHHMRAFEKIPAFQQWQKVEAIHRGWSTDLKFKVTKNQETFLLRIFQQEELLAKQQEYQFIKKVAALGFPSSKPFLCAPIPESEQGYMLLTYLEGEDLSDVLPALSPKRQLNLGVEAGRYLNKIHKLLLPERISQREIAQNLYEKKQSQLNKYKESQFCMPYQQPIISYLEKQLPLLQQRPVVYQHGDFHVGNFIYLPTRQVGVIDFNRWDFGDPYEEFYKLQFFSRNVSPLFAYGQLQGYFAGKVPTLFWQFQKLYTFHAGLYSLVWALSFGEKEIRTMEQQYQQLLEDYNCGELLVPKWFSTIQRKGLRF	not soluble
MGSDKIHHHHHHMRAYDVILKKRNGEKLSREEIEFMVGGYVKGEIPDYQMAAFLMAVYFRHLDEEETYYFTETMMRSGEVLDLSEIPGTKVDKHSTGGVGDKTTLVVAPLVASAGVPVAKMSGRALGHTGGTIDKLESIPGFRTELSLEEFIKNVKKYGIAIVGQTGNLVPADKKIYALRDATATVDEISLIASSIMSKKLAGGSDAFVLDVKFGTGAFMKGFEDAKKLAFLMLRIAQQHGKKAVAVLSNMDQPLGKAVGNSLEVIEAIETLKGNGPEDLKELSLTLGALMLELAGVADFEEGKKILQEKLETGEALDKFRLLVKAQGGNERVVDDPWRVLPVAEQVVEFSAAREGFVSKIDAEKVGIASMMLGAGRKKKEDRIDHSVGIIVEKKLGDSVKKGEAIARLFVSDRSDVESALKLLKEAYVISDSPSEPPRVVEEVIK	not soluble
MGSDKIHHHHHHMRDNTHSLEGVARLLLRSEAVASSRIEGIAPNSDKVAMAILARESDSEIRGFKESATAVARNVAILDTINADLAYKDELVLDDIVAMQTALVHAQFETIHPFPDGNGRVGRAMIHALLQRRGLTDAAVLPVSMVLATLGDRYVDGLTKFREGDVLAWISFFVEAAQVATTKAAELADSVAALEAEWMDKVNHHRTAQEASCHAFGHGAHREVRTGDFIDKHGPRCSRFTHRRWHST	not soluble
MGSDKIHHHHHHMRDQQLFLFGGGPPFTPMLCRQFVSCLKQSGPVALLYVPRPGSNWDDYAPIYTDALTANGVTDFFHFPLSARPTSEQLEQLAGSAGIIISGGETERYQQFIVGTPIGTIIQERFQHGVPVAGFSAGALLTPDECRIPVIDQRNGQALVLKGLGLLTDAVISVHYDTWQEETNLSDAFMKTASNFGYGLPERSGIHLKNGQLMQQEGPEVVLLRQKGEYI	not soluble
MGSDKIHHHHHHMRGVLTMIRLFKAIPELELPVYSGEDSPVDGTEKTTGFLISNHVPGEQVEETLLVASAEIKTSQTGREWLQFTFNSPSGSCKGKQWLNQGTAEEAMRPYLETGIVHVSAKVDEYPVDSGNKSLTVQTVKAVHDQSGTAYLPQMPAGESAKDYRDQLIGLIEKMETPLRQVAHRVVSAYWDDFSTRPAALYHHHAYIGGLLKHTACMMTIGFGICQSERPDLTLLQCIQEAEADHKNDLFQAGERDMRQFAWDDSFDALYQSARSIALLNERPHQDELLLGILLHDIGKIFEYTHLGASGDRFSRLVQTEPASEKLSGIALDPNGVLIGHMPYGCFVLEQALQTEAVRLPVDQYHRLMHMILSHHGKKEWGSSVTPQTTDAWYLHAIDLLDARKEKWRQSQLT	not soluble
MGSDKIHHHHHHMRIAIIAITRNGARLGTQLRDGLGSAELYVLQKFAGQAGTGAVPFAGELKGLVAELWPAFDGFVFIMATGIVVRMVAPHLVAKDLDPAVVVMDDAGKFAVSLLSGHLGGANELACRCAFVTGAREVITTATDANNLPSFDMLAKEEGWAIDDLCRVKTLNALILEGEEIAVVDPTDRVRTAFHGTARLTFHDTFVEALQSGAKGFVFVTNRRLPPQAQADSLLILRPRNLALGIGCNSGTGAEEIAAVVGAQMKRLFLSLKSVACIGSAVAKQDEAGLLAFAREHGLPLRFFESGELNSVTVPSPPSAHALEAIGATGVAEPAAVLASNGGRLLLKKIKSGNVTLAIAEIP	not soluble
MGSDKIHHHHHHMRIDIDAFNVLQVLVEEGSFAKASERLHKAQSAVSYQVKKLEQHLGVTLFNRDHYRAELTPEGKVILAEGQRLLQHLANIEHLASRFSQGWEPKLELVIDGALPMEPIMTALKRMSEHNIPTKVQLNMEFLGGVQHRFERDQADLMLVKDYRTGPSYHPKPLPTITSVLVASSQHPLSLLKEISLPELQQHVELTIEDSSPGKRDRDEMQFGGDKVFYLSGFIMKKNALLKGLGFGWMPDFLIAEELHQRQLIEVDFIGGNRFSFTPQLVSTLERPLGRAGQLFTELILEEFAQYQLQHQSGLSGAGLG	not soluble
MGSDKIHHHHHHMRIEVWGGAGEYGRSCYFVKNKETKILFDCGINRSYEDSYPKIEREVVPFLDAVFLSHIHEDHTMGLPLLAKYGYKKKIWTTRYTKEQLPAYYEKWRNYNLAQGWHVPYTDQHVKDLNYVYIDEISNPNEWVQITPTLRFQWGYSGHVLGAVWFLLDMSHTYVFYSGDYSAESNILRANLPEKLHGDIKVAIVDAAYHTDDVSQHERINELCTEIERAAGNKGITLLPLPPLGRAQDIVLYLYKKYKELPIIVDQEILDGFQQMFAYKDWIKNNEELEELMESLKRNIIVMDDDSGTQHSYGIVVMSDANMQTKRAQLYYEQLRHDERNSIIFTGHIAKGSFAEKVLKERVGKECRVKRVPYKVHQSIRDVKEMLNTLSPEHTVLVHALKEDTDRLQKKLSTAGYENVYSLTMERIEVI	not soluble
MGSDKIHHHHHHMRIGLFTDTYFPQVSGVSTSIRTLKEGLEKEGHEVYIFTTTDRNVKRFEDPTIIRLPSVPFISFTDRRVVYRGLISAYRIAKDYELDIIHTQTEFSLGLLGKLVAKALRIPVVHTYHTQYEDYVGYIAKGKLIKPSMVKYIMRTYLSDLDGVICPSRIVLNLLDGYGVKIPKQVIPTGIPVENYRREDISEETIKNLRTELGLADNDTMLLSLSRVSFEKNIQAILMHLSAVVDENPHVKLVIVGDGPYLSDLKELVHSLELENSVIFTGMVEHSQVAIYYKACDFFISASTSETQGLTYIESLASGRPIIAQSNPYLDDVISDKMFGTLYKKESDLADAILDAIAETPKMTQEAYEQKLYEISAENFSKSVYAFYLDFLISQKASVKEKVSLTIGNKDSHSTLRFVRKAVYLPKKVFTFTGRASKKVVKAPKRRISSIRDFLD	not soluble
MGSDKIHHHHHHMRKKIVFIIRDLGYGGAQRQLITLVKNLDKQIFNTTVIFFYANGSLQKDLENNNIQTICLEKRGRWDIFGFLWRLMGHLKRIQPDSLHGYLSESNLLTIFLKPFFLSTSIIWGIRDSNISLDSYDWLDRLIFEIECLLSRFVDLIIVNSHAGQAYHLSHGFPAKKMVVIPNGIDTERFQPNSEAGLRVRTEWRISKDTILIGLIGRLDPMKDHPTFLKAVALLCKERENVCFVCVGIGTHEYAQELYQLAEELEVAEKVIWAGGRADMPDIYNALDITCSSSSYGEGFSNVIGEAMACGVPCVVTDVGDSAWIIDDTGIVVPPNNPEALKAGITSLINIISSKSYSSCHIRQRIISHFSVLNLSLKTQNSLLSINVL	not soluble
MGSDKIHHHHHHMRLDHLRLQNFRCYEDAHFDFQPGFNLVVGVNGSGKTSLLLGVAECLIPYGNAMGQGQEILSKEDVRFVIDRHEGRSRFERKFPVFIRADGDIFDLPNWRAVRLLEPWEGGVDPSSLSHLSAVLARNNAGEQIDFPVLAFYRANRRWSSARISAEFAAQQRTSRFDGYANWFDAVADLRDFESWLIARTLERLQDRLDSTPTVEREDELEWVNRAIRLAIPDAHDLRYDLRLQSLLVDMGEGNAVPFHELSDGQRSLIALIADIARRMCVLNPHIGKDVLANTGGIVIIDELDIHLHPAWQRNIAPTLKKAFPKVQFIATSHSPQVIGSLQPGEVILLKNGDSSHPRATYGLDSSTILEEVMGVPQREPEIEVLLDELFSTLENNELEKARLQLDALKKKAPDLPEFAGAEALLKRKELIGR	not soluble
